According to patent US20030032777A1, “Precursor polypeptide of phytosulfokine derived from Arabidopsis thaliana and a gene encoding said polypeptide” (priority 2001, published 2003):
Square brackets hold non-standard residues; d marks the D form. Ends that are not written are not given here. sY = N[C@@H](Cc1ccc(OS(=O)(=O)O)cc1)C(=O)O

B1: AtPSK2 gene: gene of 545 bases (SEQ ID NO: 2) encoding 87-amino-acid phytosulfokine precursor of Arabidopsis thaliana (nucleic acid, listed as Arabidopsis thaliana)
DNA: TTTAAGCATCTCTCTCCCTTCAAAGAAAATATCACAAAAATGGCAAACGTCTCCGCTTTGCTCACCATAGCTCTTCTCCTTTGCTCCACGCTAATGTGCACTGCCCGCCCCGAACCGGCCATCTCCATCTCTATCACGACTGCTGCCGATCCATGTAACATGGAGAAGAAGATAGAAGGAAAATTAGATGACATGCATATGGTAGACGAAAACTGTGGTGCAGACGACGAAGATTGCTTAATGAGGAGGACTTTGGTCGCTCATACTGATTACATCTATACCCAGAAGAAGAAGCATCCTTGATTTTCACTTACTCATTTCTAACAAACTTTTGCTCAAGATTATGTAATTTATGTCATCCTTAATTAGTATTTGTCACATACAAGATCAAGATAGTTATGATTGTGATTATTTATATGTATTTTGGATGATATATTGTAGAACTAGAAGTTTGACAATAAAAAGTTTATAGTGTCGTTGTATGTTTAAGAAGTTTGACAATAAAAACTTTATAGTGTTGTTGCAAAAAAAAAAAAAAAAAAAAA
B2: AtPSKL gene: gene of 479 bases (SEQ ID NO: 4) encoding 79-amino-acid phytosulfokine precursor of Arabidopsis thaliana (nucleic acid, listed as Arabidopsis thaliana)
DNA: CTTCTCAGGCTCCCATTATCTTTCTCTATTTTGCAAATCAGTATGGGTAAGTTCACAACCATTTTCATCATGGCTCTCCTTCTTTGCTCTACGCTAACCTACGCAGCAAGGCTGACTCCGACGACAACCACCGCTTTGTCCAGAGAAAACTCCGTCAAGGAAATTGAAGGAGACAAGGTTGAAGAAGAAAGCTGCAACGGAATTGGAGAAGAAGAATGTTTGATAAGACGAAGCCTTCTTCTTCACACCGATTACATTTATACTCAGAATCACAAGCCCTAAGTTTCTGTATTAGAGCAATTAATTAACTAATTACATTATCAAACCTATCACTGTAGTACTTTCTGTTTTCTGTTCGTCTTTTTTGTTTTGTTTTGTTTATGTTATCGCTATTTTAAAGTTTCATTGTTATTTTGAAAGTTCTTACACCATCATTATTGATAGTCTCTTAAAACAAAAAAAAAAAAAAAAAAAAAAAA

Columns and labels:
[1] = test system: Arabidopsis cultured cells; assay: Rate of cell division / proliferation of transgenic cells; assay type: cell-based, Arabidopsis thaliana; conditions: for Cell proliferation of transformed Arabidopsis cultured cells: cells transformed by the gene
Procedure: Constructs were transformed into Agrobacterium tumefaciens (C58C1Rif^R) by triparental mating (Van Haute et al., 1983), and Agrobacterium-mediated transformation of roots of Arabidopsis Columbia ecotype was essentially as described (Valvekens et al., 1988). Transgenic microcalli were generated by incubating co-cultivated root explants for 3 weeks on the callus induction medium (B5+0.5 mg/l 2,4-D and 0.05 mg/l KIN) supplemented with 50 mg/l Kan sulphate (Life Technologies, Grand Island, N.Y., USA) and 750 mg/l vancomycin hydrochloride (Wako, Osaka, Japan). The individual regenerating microcalli were transferred to fresh medium to ensure that all transformants were due to independent T-DNA insertions. To detect the introduced genes, genomic DNA was isolated from transgenic calli, digested with BamHI, and allowed to hybridize with the labeled cDNA as described above. Arabidopsis cells transformed with the binary vector alone served as controls.
To examine whether AtPSK2 and AtPSKL indeed code for precursors to PSK, we transformed 28-day-old Arabidopsis roots with artificially mutated AtPSK2 or AtPSKL cDNAs in the sense orientation designed to produce [Ser^4]PSK-α instead of PSK-α, and the wild-type cDNAs in sense and antisense orientations, respectively. The chimeric genes were placed under the control of the constitutive cauliflower mosaic virus (CaMV) 35S promoter incorporated within the binary vector pMAT037 (Matsuoka and Nakamura, 1991). Arabidopsis cells transformed with the binary vector alone served as controls. B5 medium (Gamborg et al., 1968) supplemented with 0.5 mg/L 2,4-dichlorophenoxyacetic acid (2,4-D) and 0.05 mg/L kinetin (KIN) was used to induce calli.
The rate of cell division was investigated on the transgenic cells. The results on AtPSK2 and AtPSKL are shown in FIGS. 12 and 13, respectively. In FIGS. 12 and 13, A indicates the result of the sense transgenic cells, B indicates the result of the control cells, C indicates the result of the antisense transgenic cells, respectively. […]

plant cell = conditions: relative to PSK-α; cited from earlier work
Arabidopsis cells = assay: LC/MS quantification of PSK analogs secreted into conditioned medium (CM) by transgenic cells; assay type: cell-based, Arabidopsis thaliana; conditions: cells transformed by the gene
Source text: A 22-mer primer (5′-[…]-3′) based on the nucleic acid sequence of the AtPSK2 cDNA and A 24-mer primer (5′-[…]-3′) based on the nucleic acid sequence of the AtPSKL cDNA were synthesized and used to obtain the mutated cDNAs that were designed to produce unnatural [Ser^4]PSK-α instead of PSK-α. Mutations were introduced with a LA PCR In Vitro Mutagenesis Kit (Takara) and confirmed by sequencing. The pMAT037 (Matsuoka and Nakamura, 1991) was employed as a binary vector for Arabidopsis root transformation. Original or mutated cDNAs were digested with SacI and HindIII or KpnI and inserted in-frame into the same sites of the vectors to construct chimeric genes harboring the cDNA in sense or antisense orientations, respectively. Expression of the chimeric genes was driven by the promoter of the CaMV 35S transcript.
Constructs were transformed into Agrobacterium tumefaciens (C58C1Rif^R) by triparental mating (Van Haute et al., 1983), and Agrobacterium-mediated transformation of roots of Arabidopsis Columbia ecotype was essentially as described (Valvekens et al., 1988). […]
Mass spectra were obtained using a Fisons VG platform quadruple mass spectrometer with electrospray ionization interfaced to a Jasco PU 980 HPLC system. […] The semiquantitative amounts of the PSK-α, PSK-β, [Ser^4]PSK-α and [Ser^4]PSK-β in CM were measured based on the peak heights without an internal standard. […]

Molecule	Effect of supplementation in the medium on decreased mitogenic activity of antisense transgenic cells ([1]; PSK-α added to medium of antisense transgenic cells)	Cell proliferation activity compared to that of PSK-α (plant cell)	Secretion of PSK by transformed Arabidopsis cultured cells (Arabidopsis cells)	Cell proliferation of transformed Arabidopsis cultured cells [1]
[sY]I[sY]TQ [PSK-α, reference compound]	alternated in part			
[sY]I[sY]T [PSK-β]		less than one-tenth		
B1			could secret the PSK	cell proliferation was enhanced
B2			could secret the PSK	cell proliferation was enhanced
